± gives the uncertainty stated by the source.
Experiment: amyloid nucleation score (Sup35N fusion, yeast selection) (log enrichment); library NNK1; higher = more nucleation; inactive = no reads after selection
Summary of the method: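 Peptides of 20 random codons, each fused to Sup35N, were expressed in psi-negative yeast. Cells were induced with 100 μM copper sulfate for 24 hours and grown 7 days at 30°C on medium lacking adenine and uracil, and plasmid inserts before and after selection were Illumina-sequenced. Nucleation scores are DiMSum log enrichments of output over input reads, centred on the mode score of non-aggregating sequences, and sequences under 100 input reads were excluded.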

Row | Substance | amyloid nucleation score
1 | IKWYAY | 0.952 ± 0.68
2 | ILCALMRFLVETLHLINFWK | -0.278 ± 0.61
3 | ILEVCRHRVIIIRNYLSYCA | 2.8 ± 0.24
4 | ILFFDVSSQGRTEDKVRNLG | 0.088 ± 0.69
5 | ILFRVVSRVGISRYGWKRVL | -0.241 ± 0.83
6 | ILHWEKRDSTVKILSLSIHW | 0.385 ± 0.46
7 | ILIGRPQYIDRYMSSCVIIL | inactive
8 | ILKDVFIITVISSCSITSKL | 2.37 ± 0.18
9 | ILLMSSGEDYSHTGAP | -0.06 ± 0.76
10 | ILLRLGDVVRIGLVFVTSFG | 0.421 ± 0.61
11 | ILMLKH | -0.484 ± 0.68
12 | ILNGFTRYLR | -0.12 ± 0.36
13 | ILSDVDVCGYLRFMFWSMSD | 1.58 ± 0.49
14 | ILSFMYYDTHAPLKFAVQVK | 0.296 ± 0.45
15 | ILSLNCFYRTWRLEMNKSYK | 1.94 ± 0.52
16 | ILSLS | 0.038 ± 0.18
17 | ILSWSNSGRMNHRPLVYERS | 0.963 ± 0.43
18 | ILTDTSMGTSAVHRARQTLK | 0.066 ± 0.48
19 | ILTRVV | 0.37 ± 1.1
20 | ILVGTWSLGSRAVEGNNWDH | -0.357 ± 0.49
21 | ILVSQCRRLVYFVGSVCFST | 0.622 ± 0.53
22 | ILWLFSGAWLYYSVLYCL | -0.076 ± 0.51
23 | ILWPGWDYTKKIVFSCLMVI | -0.613 ± 0.29
24 | ILYVNNFIFLH | 7.59 ± 0.056
25 | IMFTWWEYRLRSLEV | -0.334 ± 0.48

Row | Substance | amyloid nucleation score
26 | IMLNLFHYGSSLQQFKTHH | 7.325 ± 0.054
27 | IMVTDKLSTCAETYIDISW | -0.164 ± 0.75
28 | IMWLLLPRYDLFFRLMYTAS | 0.617 ± 0.46
29 | INETLYRTFSRL | -0.471 ± 0.56
30 | INLTNIHFCHVNFVVGALKP | 5.98 ± 0.079
31 | INSQSTATN | 0.593 ± 0.31
32 | IPVWTYIVWAQESILQRGCW | 0.217 ± 0.46
33 | IQLYIYCNMWKVGGKEWRAW | 5.78 ± 0.087
34 | IQNISLGVVGVMWNPHTCVV | -0.708 ± 0.66
35 | IQSLVFRGKRVTHTKQSLTL | 0.262 ± 0.36
36 | IQTCCHIQVELV | 3.79 ± 0.088
37 | IRELRSDFSGSMVDERFLGE | 0.489 ± 1.1
38 | IRFFKCLTCVSDCGN | inactive
39 | IRGLLRFL | 0.007 ± 0.35
40 | IRIWSSREGFASIVWTCLMG | -0.32 ± 0.54
41 | IRKFLFLFNALLSAPLLFHK | -0.2 ± 1.1
42 | IRLTILLSKVDTDE | 0.885 ± 0.42
43 | IRMGCNVHREEVSFTVLAVH | 0.409 ± 0.66
44 | IRMVFAMVSYSCDYRATAGT | 2.65 ± 0.18
45 | IRQQFKCYGEFCATM | -0.587 ± 1.2
46 | IRSLITMVGTGLGPLAR | 0.876 ± 0.4
47 | ISCKWYNHISSRLNFMWHAK | 0.394 ± 0.88
48 | ISFCDGRSCIDLIAVRCFRG | -0.909 ± 0.26
49 | ISFLFMCYLWQGNNS | 6.24 ± 0.066
50 | ISGIECQYTNGRRWGPPS | -0.323 ± 0.81

Row | Substance | amyloid nucleation score
51 | ISGLNV | -0.372 ± 0.51
52 | ISHKQITTDSSNTVRVYGGN | -0.122 ± 1.6
53 | ISICYRIEKRE | inactive
54 | ISLGCNDSGLRIG | -0.935 ± 0.84
55 | ISLISYFFSFLWLYYYFFEF | 1.06 ± 0.28
56 | ISLVICGFYGLAEMVDNSQN | 7.51 ± 0.077
57 | ISNWDVLSCMTQDIGVMTLL | -0.092 ± 0.82
58 | ISSQFGAKTIFPRSVPPQAI | -0.562 ± 0.35
59 | ISSWTHVW | 1.23 ± 0.85
60 | ISVHHFR | 0.282 ± 0.57
61 | ISVKHKFPGANSSVRWDRFW | 3.47 ± 0.11
62 | ISVMEFFVISGFTNWVKCFV | 1.06 ± 0.31
63 | ISVVLWYDRALARCPSPDAP | 0.764 ± 0.49
64 | ISYVSVS | 0.073 ± 0.41
65 | ITFLLRSFRVHS | inactive
66 | ITFLRSTIPSVRTRQRLHEL | 0.783 ± 0.4
67 | ITFTHDNISYKIRTPFAKSL | 1.55 ± 0.26
68 | ITGFKFS | 0.698 ± 0.3
69 | ITLNWKIAEFSRCTVQLQNL | 6.324 ± 0.061
70 | ITLVDVVG | 0.082 ± 0.34
71 | ITNCEAEEPDCWPDE | -0.357 ± 0.35
72 | ITSYSFIRSNGSVMGSWGSV | -0.092 ± 0.65
73 | ITWFVYGPLGWMWGFLRPTA | 0.019 ± 0.62
74 | ITYIGWQGSNLYWLFTTTLV | -1.12 ± 1.9
75 | ITYYVNFDFCQGSLARVWLC | 5.01 ± 0.059

Row | Substance | amyloid nucleation score
76 | IVCFM | -0.377 ± 0.6
77 | IVEGVPGTRPHVLAKCSDEC | 0.232 ± 0.3
78 | IVFLKLWEQVGWTVIDNLGV | -0.552 ± 1.4
79 | IVNVAGNV | 0.803 ± 0.45
80 | IVRNGQATWSWILRGPSWVG | -1.32 ± 0.48
81 | IVRSAVRLELSGLPRCQGIS | -0.065 ± 0.95
82 | IVSTMCPRTDGVPCDNF | -0.035 ± 0.36
83 | IVTKGGLNNVCAVYLCYVGS | 6.46 ± 0.065
84 | IVVFSIYYVCSDGGPRVTRR | 1.43 ± 0.3
85 | IVVYVCIVGNNAPSLDAKSV | 0.923 ± 0.23
86 | IWAHVPTSRYEILVVFSG | 0.253 ± 0.45
87 | IWEFSWLYMLKVMRSGFSYN | -0.282 ± 0.44
88 | IWKSSRGPLIGLVVLDIARR | 1.01 ± 0.79
89 | IWMTGVLLNP | -0.223 ± 0.29
90 | IWNSVARFRYSSMGFVVSAV | -0.702 ± 1.7
91 | IWPYLGSASVL | 1.73 ± 0.35
92 | IWYYSSAQLDCFPYNSTMQE | 0.8 ± 0.93
93 | IYACRGQRVMRTRIKCVVIW | 0.525 ± 0.72
94 | IYASSLTDGFTVVWCLNQY | 5.05 ± 0.07
95 | IYDIEEDLCSVSVSGKESWV | -0.307 ± 0.47
96 | IYFKIVILLRSSFFL | inactive
97 | IYKLLGRVKSMMFLWYTVHS | -0.527 ± 0.52
98 | IYRFQWPWDMLMYCWTLMSV | -0.776 ± 0.93
99 | IYRLDTI | -0.864 ± 0.75
100 | IYVFSALRCTGTEVWYRLVT | -1.2 ± 1.4

Row | Substance | amyloid nucleation score
101 | IYVWKTQ | -0.242 ± 0.5
102 | IYYGQGICLVFAFNLLCNVL | 6.261 ± 0.048
103 | KAFATMLNRLEVGTLGRG | -1.36 ± 1.9
104 | KAFRMLGGFNSYRNFNIILK | 3.96 ± 0.079
105 | KAMCYKMSFCNYDSRVYTED | 4.53 ± 0.06
106 | KANCCCVSHWCCGYMQ | 4.63 ± 0.052
107 | KCFSGYWVLARLRVKFLRVG | -0.275 ± 0.53
108 | KCTLYLQFNIEHGCAIFEDK | 2.06 ± 0.64
109 | KCYGVETTYALA | 0.875 ± 0.97
110 | KCYTMHWPGS | -1.07 ± 1.7
111 | KDEARRGLTLCPTGKDILDY | -0.026 ± 0.47
112 | KDIYKRFFWYYSKKVCGYGA | -0.172 ± 0.25
113 | KDVFPILGFCSAYLPYAWSA | -0.474 ± 0.29
114 | KDVLVRFMYLG | -0.21 ± 0.68
115 | KEDIVLACIGSVKHVRAQWR | 5.97 ± 0.081
116 | KETLGIQ | 1.19 ± 0.52
117 | KEYNNPRLKLTMRRFAAKS | 0.539 ± 0.69
118 | KFDLYRTWCSSLRFGRYWRV | 1.23 ± 0.59
119 | KFFFKSSNDVIKGVHNRTIR | -0.404 ± 0.49
120 | KFIIAGNLNQKSTSWV | 2.23 ± 0.086
121 | KFIIVLILDCITIHHSVVVS | -0.819 ± 0.67
122 | KFILRYMAWTRVDAVVSKPY | -0.496 ± 0.38
123 | KFLLNRVLTDMDLYT | 0.135 ± 0.37
124 | KFVWVIAVDVDSRCKFCCGS | 0.354 ± 0.82
125 | KGAVFVPETAPLI | 0.93 ± 1

Row | Substance | amyloid nucleation score
126 | KGGSFVGLSTVQYLLASYAL | -0.153 ± 1.3
127 | KGKTNGVV | -0.44 ± 0.48
128 | KGNRGQ | inactive
129 | KGQSRHVSECVGWVSNVASL | 0.461 ± 0.73
130 | KGTGRLIRLASAWAGMGMHL | -0.332 ± 1.1
131 | KHAYFSLIRVSNWKWNSVRV | -0.027 ± 0.56
132 | KHSPSDYPERLHHNFYIERI | inactive
133 | KHYFCKMSV | -0.029 ± 0.37
134 | KIPYVFFGKRTGVSLFRMFD | 0.202 ± 0.56
135 | KKFRVGVDLSRCTLGLENYK | 4.3 ± 0.059
136 | KKYVMSNVTCVE | 0.934 ± 0.47
137 | KLFSWADHGGEGFEWMQLTT | -0.026 ± 0.3
138 | KLGCYTL | 0.367 ± 0.81
139 | KLKGG | -0.27 ± 0.3
140 | KLLNRTMRTMVSVSRVM | 0.738 ± 0.72
141 | KLMSEFTKFVFSLLSSNKSH | -0.457 ± 0.31
142 | KLSFK | -0.227 ± 1.9
143 | KLVDAGFVD | 0.759 ± 0.35
144 | KLWPSMSFLNCLWCIRERQL | 4.48 ± 0.081
145 | KLYLVVRMTGQPPSGMACVL | 0.142 ± 1.2
146 | KMEPGPRAKALGTNRRFLLK | inactive
147 | KMGWLRH | -0.566 ± 0.5
148 | KMRCDGLEQRLRSQSDLLAP | 0.374 ± 0.45
149 | KMVLF | 0.927 ± 0.49
150 | KNGRWAWFTSRAHCFGYNFT | -1.14 ± 0.82

Row | Substance | amyloid nucleation score
151 | KNPRGENIFLPCLRMGKHLL | -0.776 ± 1.9
152 | KNSLTTKVLLCTLAATL | 0.603 ± 0.73
153 | KNTCKQMV | 0.242 ± 0.57
154 | KNVSLRYILAYCRHYKLTHG | 0.19 ± 1.2
155 | KPEFVNWIC | 0.083 ± 0.32
156 | KPKVVNMVEGLRGFCGLLDL | -0.602 ± 0.94
157 | KPYIFYFINVYCEA | 5.917 ± 0.056
158 | KQLDINRLTSDMS | inactive
159 | KQNSKLFLIFIGNALGQVTV | 5.09 ± 0.064
160 | KRCFVLWLHRLWVGVNVFAD | 0.237 ± 0.25
161 | KRCSFWQTRTVELSFGHPVL | -1.23 ± 2.7
162 | KRCSYRS | 0.07 ± 0.6
163 | KRLHRGCWEVGSRGSLKLVN | -1.14 ± 1.6
164 | KRLWLKLSTVE | 0.32 ± 0.32
165 | KRMDKPWTPGYTAMHWVDNM | 0.612 ± 0.52
166 | KRNRVAIILWICNNYYEWNN | -0.747 ± 0.39
167 | KRPSSFVEFFMLWRSKAR | 0.947 ± 0.43
168 | KRSTVRHYYRARCFITVAMV | -0.365 ± 0.45
169 | KRVANDWEYGFGYNPTVVGR | 0.295 ± 0.46
170 | KSAANTINIRPENETVPRFQ | 0.556 ± 0.59
171 | KSESDL | inactive
172 | KSFSIYTVIVV | 1.2 ± 0.26
173 | KSMHEVWWLLQSEGERDL | 0.712 ± 0.49
